Measurements: PMC3630167

Biological target: purified native poly-γ-D-glutamic acid (γDPGA) from B. licheniformis strain 9945 (B. licheniformis)
Assay: ELISA

**Q.** How did the fold more mAb required for OD450 = 2.0 than with the IgG3 subclass turn out when “mAb F26G3 IgG2b subclass switch variant (antibody)” was run?
**A.** > 15 fold

**Q.** Which fold more mAb required for OD450 = 2.0 than with the IgG3 subclass does the source give for “mAb F24F2 IgG2a subclass switch variant (antibody)” here?
**A.** > 15 fold

**Q.** “mAb F24F2 IgG1 subclass switch variant (antibody)” was tested. Which fold more mAb required for OD450 = 2.0 than with the IgG3 subclass did it give?
**A.** > 15 fold

**Q.** For “mAb F26G3 IgG1 subclass switch variant (antibody)”, which fold more mAb required for OD450 = 2.0 than with the IgG3 subclass is on record?
**A.** > 15 fold

**Q.** With “mAb F26G3 IgG2a subclass switch variant (antibody)” as the substance, how does the fold more mAb required for OD450 = 2.0 than with the IgG3 subclass read?
**A.** > 15 fold

**Q.** “mAb F24F2 IgG2b subclass switch variant (antibody)” was tested. Which fold more mAb required for OD450 = 2.0 than with the IgG3 subclass did it give?
**A.** > 15 fold
